Target: palm-Mover-flag (not stated | rat)
Experiment: plasma membrane recruitment assay in cells (immunofluorescence, line scans); Vero cells co-transfected with palm-Mover-flag and a myc- or GFP-tagged Mover construct; fixed after 24 h, stained against the tags; a cell is positive for recruitment when the fluorescence profiles co-peak in the cell periphery

| percent of cells showing recruitment (percent of cells) | Substance |
| --- | --- |
| 71 | GFP-Mover 34–266 (domain or fragment) |
| 94 | GFP-Mover (natural protein) |
| 86 | GFP-Mover 52–266 (domain or fragment) |
| 94 | Mover-myc (natural protein) |
| 61 | Mover-GFP (natural protein) |

From article PMC3665746
